# Laboratory results: PMC10199920, “Identification of a mycobacterial hydrazidase, an isoniazid-hydrolyzing enzyme” (Scientific Reports, 2023)
# How the values were obtained:
# Format in all cases: biochemical, Mycolicibacterium smegmatis
# Details in all cases: 50 mM sodium phosphate pH 7.0, 37 °C, 15 min
# NNC(=O)c1ccncc1 = test: colorimetric hydrazine formation (p-dimethylaminobenzaldehyde), Lineweaver-Burk
# Text: (§1) colorimetric hydrazine formation (p-dimethylaminobenzaldehyde), Lineweaver-Burk on PzaA
# NNC(=O)c1cccnc1 = test: as above
# Text: as §1
# NC(=O)c1cnccn1 = test: colorimetric ammonia formation, Lineweaver-Burk
# Text: (§2) colorimetric ammonia formation, Lineweaver-Burk on PzaA
# NC(=O)c1cccnc1 = test: colorimetric ammonia formation, Lineweaver-Burk
# Text: as §2
# NC(=O)c1ccncc1 = test: colorimetric ammonia formation, Lineweaver-Burk
# Text: as §2
substance,measurement,setting,value
PzaA (Mycolicibacterium smegmatis MC2 155),Km,NNC(=O)c1ccncc1,1.20 (0.271) mM
same,Vmax,NNC(=O)c1ccncc1,1.51 µmol/min/mg
same,Vmax/Km,NNC(=O)c1ccncc1,1260 µL/min/mg
same,Km,NNC(=O)c1cccnc1,1.26 (0.0475) mM
same,Vmax,NNC(=O)c1cccnc1,23.7 µmol/min/mg
same,Vmax/Km,NNC(=O)c1cccnc1,18800 µL/min/mg
same,Km,NC(=O)c1cnccn1,0.143 (0.0078) mM
same,Vmax,NC(=O)c1cnccn1,11.7 µmol/min/mg
same,Vmax/Km,NC(=O)c1cnccn1,81800 µL/min/mg
same,Km,NC(=O)c1cccnc1,0.0887 (0.0113) mM
same,Vmax,NC(=O)c1cccnc1,37.2 µmol/min/mg
same,Vmax/Km,NC(=O)c1cccnc1,419000 µL/min/mg
same,Km,NC(=O)c1ccncc1,0.145 (0.0203) mM
same,Vmax,NC(=O)c1ccncc1,6.48 µmol/min/mg
same,Vmax/Km,NC(=O)c1ccncc1,44700 µL/min/mg
